Ends that are not written are not given here.
Assays:
Experiment in all cases: biotinylated peptide overlaid on formalin-fixed amyloid-containing tissue sections; list of amyloids that p31 'specifically binds significantly'
[1] = molecular target: T1, ALECT2 amyloid (Lect2 amyloidosis) (human, UniProt O14960 19-151, limits assumed)
T1 construct: also called ALEC2
T1 sequence (looked up): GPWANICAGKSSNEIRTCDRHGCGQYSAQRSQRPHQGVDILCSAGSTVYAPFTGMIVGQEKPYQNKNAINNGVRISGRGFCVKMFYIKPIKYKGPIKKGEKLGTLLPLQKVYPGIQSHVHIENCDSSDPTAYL
Method: (§1) The peptides were overlaid onto formalin-fixed 6 μm-thick amyloid-containing tissue sections, incubated overnight and then the distribution visualized using standard immunohistochemical techniques.

[2] = molecular target: Aβ amyloid (Alzheimer's disease) (human, UniProt P05067 672-713)
Method: as §1

[3] = molecular target: T2, AA amyloid (canine) (canine, UniProt P19708 19-111)
T2 sequence (looked up): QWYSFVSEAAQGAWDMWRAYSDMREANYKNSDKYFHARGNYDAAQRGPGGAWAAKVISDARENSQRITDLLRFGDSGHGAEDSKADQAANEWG
Method: as §1

[4] = molecular target: T3, AA amyloid (human) (human, UniProt P0DJI8 19-94, limits assumed)
T3 construct: also called serum amyloid protein A amyloidosis
T3 sequence (looked up): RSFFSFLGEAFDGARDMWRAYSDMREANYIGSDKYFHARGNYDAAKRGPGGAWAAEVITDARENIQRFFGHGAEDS
Method: as §1

[5] = molecular target: ATTR amyloid (transthyretin amyloidosis) (human, UniProt P02766 21-147)
Method: as §1

Measured: binding result

B1: peptide p31 (peptide)
peptide: CGGYSKAQKAQAKQAKQAQKAQKAQAKQAKQ
modifications: also: label differs by assay: biotinyl-maleimide on Cys1 (tissue overlays), 125I on Tyr or 99mTc (imaging)
notes: Synthetic peptide with an N-terminal CGGY leader
binds: all assays above

Source: patent US20130022546A1 (UNIVERSITY OF TENNESSEE RESEARCH FOUNDATION, published 2013)
